The values that follow are results of earlier work, collected in publication PMC12892997.

The target of series [1] is SARS-CoV-2 spike protein (Severe acute respiratory syndrome coronavirus 2) (UniProt P0DTC2).
The target of series [2] is SARS-CoV-2 spike protein RBD (Severe acute respiratory syndrome coronavirus 2) (UniProt P0DTC2).

Sequence of GRP78 (P11021 19-654): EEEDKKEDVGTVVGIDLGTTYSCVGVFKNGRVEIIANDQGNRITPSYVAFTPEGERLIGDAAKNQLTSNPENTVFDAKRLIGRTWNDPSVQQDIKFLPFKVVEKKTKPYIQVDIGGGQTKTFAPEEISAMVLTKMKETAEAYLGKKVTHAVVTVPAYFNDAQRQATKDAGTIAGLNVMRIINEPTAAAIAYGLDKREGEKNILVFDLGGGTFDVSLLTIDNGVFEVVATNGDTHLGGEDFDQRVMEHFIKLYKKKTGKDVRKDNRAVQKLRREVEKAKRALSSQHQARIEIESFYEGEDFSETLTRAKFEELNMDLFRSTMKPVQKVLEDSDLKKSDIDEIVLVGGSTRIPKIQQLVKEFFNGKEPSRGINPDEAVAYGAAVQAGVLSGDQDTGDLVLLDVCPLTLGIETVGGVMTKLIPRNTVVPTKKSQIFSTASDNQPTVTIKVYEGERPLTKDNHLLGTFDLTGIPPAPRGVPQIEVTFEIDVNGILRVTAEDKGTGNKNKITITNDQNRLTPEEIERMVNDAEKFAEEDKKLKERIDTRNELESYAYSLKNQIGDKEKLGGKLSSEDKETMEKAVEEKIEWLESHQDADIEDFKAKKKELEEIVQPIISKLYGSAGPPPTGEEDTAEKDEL

A word on the Kd: it is a measure of binding affinity in units of concentration. Turning to GRP78 (from UniProt P11021), the Kd in series [1] was 55.2 nM.
Take “CD4 N-terminal domain (from UniProt P01730)”: the Kd in series [2] was 24.5 nM.
